# Measured values: patent US20230203185A1 (ECO ANIMAL HEALTH, published 2023)
# Positions count from the first letter of the chain named.
# T1: native membrane bound porcine CD163 on primary porcine alveolar macrophages (porcine, UniProt Q2VL90 47-1115)
# T1 construct: also called PAM CD163-WT; pPAM
# T1 sequence: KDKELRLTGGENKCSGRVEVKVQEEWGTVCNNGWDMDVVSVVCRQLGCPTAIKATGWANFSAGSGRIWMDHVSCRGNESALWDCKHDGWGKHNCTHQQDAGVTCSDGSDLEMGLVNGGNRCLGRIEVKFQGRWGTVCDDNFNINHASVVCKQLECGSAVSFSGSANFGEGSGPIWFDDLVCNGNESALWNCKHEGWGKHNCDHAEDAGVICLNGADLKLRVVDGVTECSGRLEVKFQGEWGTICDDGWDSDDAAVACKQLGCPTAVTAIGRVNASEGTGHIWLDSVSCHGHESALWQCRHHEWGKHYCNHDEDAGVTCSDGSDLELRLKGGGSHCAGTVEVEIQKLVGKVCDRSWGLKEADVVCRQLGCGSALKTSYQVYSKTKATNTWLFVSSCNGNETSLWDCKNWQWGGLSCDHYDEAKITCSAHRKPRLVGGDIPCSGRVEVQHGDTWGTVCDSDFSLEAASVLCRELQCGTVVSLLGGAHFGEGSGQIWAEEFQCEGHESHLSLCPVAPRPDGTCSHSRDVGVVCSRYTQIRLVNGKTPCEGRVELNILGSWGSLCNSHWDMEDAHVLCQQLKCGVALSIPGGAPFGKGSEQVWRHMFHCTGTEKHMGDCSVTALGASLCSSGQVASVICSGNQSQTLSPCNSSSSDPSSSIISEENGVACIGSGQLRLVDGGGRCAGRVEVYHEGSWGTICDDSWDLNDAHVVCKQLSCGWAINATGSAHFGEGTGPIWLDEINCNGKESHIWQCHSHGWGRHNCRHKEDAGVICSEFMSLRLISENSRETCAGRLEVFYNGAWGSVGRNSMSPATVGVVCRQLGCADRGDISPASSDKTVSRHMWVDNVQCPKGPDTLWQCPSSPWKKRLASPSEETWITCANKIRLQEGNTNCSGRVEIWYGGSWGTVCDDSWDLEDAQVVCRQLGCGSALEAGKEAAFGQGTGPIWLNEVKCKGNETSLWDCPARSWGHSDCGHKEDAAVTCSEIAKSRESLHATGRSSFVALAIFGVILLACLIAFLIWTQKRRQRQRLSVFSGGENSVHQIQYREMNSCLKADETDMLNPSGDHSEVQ
# T2: porcine CD163 with deletion of SRCR domain 5 on porcine alveolar macrophages (porcine, UniProt Q2VL90 47-1115)
# T2 construct: also called PAM CD163-d5; pPAMΔ5 domain
# T2 sequence: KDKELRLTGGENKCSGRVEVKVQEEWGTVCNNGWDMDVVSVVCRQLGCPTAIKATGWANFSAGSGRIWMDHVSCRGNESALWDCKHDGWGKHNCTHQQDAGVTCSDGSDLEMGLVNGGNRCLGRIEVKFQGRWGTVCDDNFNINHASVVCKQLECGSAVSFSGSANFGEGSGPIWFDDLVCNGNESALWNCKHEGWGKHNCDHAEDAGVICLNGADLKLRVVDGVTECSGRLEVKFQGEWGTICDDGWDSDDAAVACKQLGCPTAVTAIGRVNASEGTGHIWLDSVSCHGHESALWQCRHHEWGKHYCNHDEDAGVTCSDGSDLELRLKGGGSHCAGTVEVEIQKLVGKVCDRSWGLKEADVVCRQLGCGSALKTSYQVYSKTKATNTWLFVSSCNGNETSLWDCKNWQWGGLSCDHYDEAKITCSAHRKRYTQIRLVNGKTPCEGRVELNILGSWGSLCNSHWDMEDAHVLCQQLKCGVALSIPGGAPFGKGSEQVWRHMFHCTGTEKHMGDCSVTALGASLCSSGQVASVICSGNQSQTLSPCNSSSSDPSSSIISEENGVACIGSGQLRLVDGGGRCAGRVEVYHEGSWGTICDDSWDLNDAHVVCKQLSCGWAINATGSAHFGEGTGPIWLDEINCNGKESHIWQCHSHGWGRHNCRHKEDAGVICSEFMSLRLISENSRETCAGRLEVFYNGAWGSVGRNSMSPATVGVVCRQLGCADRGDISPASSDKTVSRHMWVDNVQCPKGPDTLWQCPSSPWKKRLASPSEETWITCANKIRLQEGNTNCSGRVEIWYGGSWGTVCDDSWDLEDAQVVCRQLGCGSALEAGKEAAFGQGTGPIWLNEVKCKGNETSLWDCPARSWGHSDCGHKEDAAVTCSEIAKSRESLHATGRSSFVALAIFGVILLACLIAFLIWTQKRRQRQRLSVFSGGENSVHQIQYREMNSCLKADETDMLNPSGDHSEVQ
# B1: VHH 002 (1B04) (VHH)
# VHH: QVQLVESGGGLVQAGGSLRLSCAASGLTFVTYSMGWFRQAPGKEREFVAAHRWSGSAYYAEHADSVEGRFTISRDYAKNMLYLQMNSLKHEDTAVYYCAAGVGSAAQYRYWGRGTQVTVSS
# notes: Llama single domain antibody; also called 76(#2); VHCDR3 76(#2); not shown: tags: c-myc tag in periplasmic extract (ELISA, FACS); FLAG and His tags in purified VHH (SPR, infection assays)
# B2: VHH 016 (2H11) (VHH)
# VHH: EVQLVESGGGLVQAGGSLRLSCAASGRTFAPGSMGWFRQAPGKEREFVAAHRWSGSAYYADYADSVEGRFTISRDYAKNMVYLQMNSLKPGDTAVYYCAAGVGSAAQYTYWGRGTQVTVSS
# notes: Llama single domain antibody; also called 77(#16); VHCDR3 77(#16); not shown: tags: c-myc tag in periplasmic extract (ELISA, FACS); FLAG and His tags in purified VHH (SPR, infection assays)
# B3: VHH 008 (1H01) (VHH)
# VHH: B1 VHH with L27R, V30G, A105E
# notes: Llama single domain antibody; also called 78(#8); VHCDR3 78(#8); not shown: tags: c-myc tag in periplasmic extract (ELISA, FACS); FLAG and His tags in purified VHH (SPR, infection assays)
# B4: VHH 023 (4E10) (VHH)
# VHH: QVQLVESGGGLVQAGGSLRLSCVASSRTSSTYAMGWFRQGPGKERDFVAIISFGGTFYADSVKGRFTISRDNAKNTVYLQMNSLKPEDTAVYYCAAGRTLSKRADSYASWGQGTQVTVSS
# notes: Llama single domain antibody; also called 70(#23); VHCDR3 70(#23); not shown: tags: c-myc tag in periplasmic extract (ELISA, FACS); FLAG and His tags in purified VHH (SPR, infection assays)
# B5: VHH 001 (1B02) (VHH)
# VHH: EVQLVESGGGLVQAGGSLSLSCAASGGTLAMYAMSWFRQAPGKDRKFVAAINTSGRYSRYADSVKGRFTISRDNAKNTATLQMNSLEPEDTAVYYCAATDKGNWALAMSYDYWGQGTQVTVSS
# notes: Llama single domain antibody; also called 144(#1); VHCDR3 144(#1); not shown: tags: c-myc tag in periplasmic extract (ELISA, FACS); FLAG and His tags in purified VHH (SPR, infection assays)
# B6: VHH 011 (2B06) (VHH)
# VHH: EVQLVESGGGLVQAGGSLRLSCAASGRTLSVYGTGWFRQAPGKEREFVAGISGTTGSTLYADSVKGRFTISRDNAKNTVYLQMNSLKSEDTALYYCAAGGRVYITTSSWAYWGQGTQVTVSS
# notes: Llama single domain antibody; also called 57(#11); VHCDR3 57(#11); not shown: tags: c-myc tag in periplasmic extract (ELISA, FACS); FLAG and His tags in purified VHH (SPR, infection assays)
# B7: VHH 012 (2C07) (VHH)
# VHH: QLQLVESGGGLVQAGGSLRLSCVASGRTFSRYAMGWFRQAPGKEREFVAAIAWSTGSTYYANSVKGRFAISGDNAKNTVYLQMNSLKPEDTAVYYCAAETRYCSGFGCLDPRTYGSWGQGTQVTVSS
# notes: Llama single domain antibody; also called 41(#12); VHCDR3 41(#12); not shown: tags: c-myc tag in periplasmic extract (ELISA, FACS); FLAG and His tags in purified VHH (SPR, infection assays)
# B8: VHH 018 (3E01) (VHH)
# VHH: QVQLQESGGGLVQVGGSLRLSCVASGRAPSRYVMGWFRQAPGQEREFVAGIAWSGRAPYADSVKGRSTISRDNAKNTVYLQMNSLKPEDTGVYYCAGGEGAIRWTTLDAYDYWGQGTQVTVSS
# notes: Llama single domain antibody; also called 49(#18); VHCDR3 49(#18); not shown: tags: c-myc tag in periplasmic extract (ELISA, FACS); FLAG and His tags in purified VHH (SPR, infection assays)
# B9: VHH 019 (3E11) (VHH)
# VHH: B8 VHH with G16S, A24T, A28T, G50A, A52S, S67F, R103K
# notes: Llama single domain antibody; also called 47(#19); VHCDR3 47(#19); not shown: tags: c-myc tag in periplasmic extract (ELISA, FACS); FLAG and His tags in purified VHH (SPR, infection assays)
# B10: VHH 020 (3H11) (VHH)
# VHH: B8 VHH with A28T, S67F, T68V, N73S, P87S, R103L, L107P, D108G, D111N
# notes: Llama single domain antibody; also called 48(#20); VHCDR3 48(#20); not shown: tags: c-myc tag in periplasmic extract (ELISA, FACS); FLAG and His tags in purified VHH (SPR, infection assays)
# B11: VHH 017 (3D03) (VHH)
# VHH: QLQLVESGGGLVQPGGSLRLSCAASGFTLDDYTIGWFRQAPGKEREGVSCINSITSNTYYADSVKGRFTISRDNAKNTVYLQMNSLTAEDTAIYYCAADSGLFSGSSCLKYRAMRFGSWGQGTQVTVSS
# notes: Llama single domain antibody; also called 29(#17); VHCDR3 29(#17); not shown: tags: c-myc tag in periplasmic extract (ELISA, FACS); FLAG and His tags in purified VHH (SPR, infection assays)
# B12: VHH 015 (2G01) (VHH)
# VHH: QVQLVESGGGLVQAGDTLRLSCTASGRTFSSYSMGWFRQAPGKEREFVAAITWNGYITNYADSVKGRFTISRDNTKNTVFLQMNSLKPEETAVYYCAATTFSTTSPISRTYNYWGPGTQVTVSS
# notes: Llama single domain antibody; also called 150(#15); VHCDR3 150(#15); not shown: tags: c-myc tag in periplasmic extract (ELISA, FACS); FLAG and His tags in purified VHH (SPR, infection assays)
# Molecular target: T1, native membrane bound porcine CD163 on …
# Assay: flow cytometry, PAM CD163-WT, 4C
# Protocol: (§1) Periplasmic Extract (P.E) from the selected clones were incubated with anti-c-myc antibody (Roche; Cat. nr. 11667203001), specific to the c-myc tag present in the soluble VHH, for 30 minutes with agitation at room temperature (RT). The mix (P.E + anti-c-myc antibody) was added to the pPAM or pPAMΔ5 domain (cells with deletion of SRCR domain 5) and incubated for 60 min at 4° C. with gentle shaking.
# (§2) Cells were washed 3x with 150 µl/well of FACS Buffer and incubated with 50 µl/well of the secondary antibody GAM-APC for 30 min at 4° C. and protected from the light, with shaking.
Binder,% Binding [%],MFI [MFI]
B1,31.8,1980
B2,61,3210
B3,38.8,2370
B4,8.75,1390
B5,0.97,742
B6,74.1,4270
B7,97.9,26500
B8,80.1,5210
B9,93.8,12500
B10,95.5,14000
B11,95.3,13500
B12,81.5,6220

# Molecular target: control human IgG (human)
# Assay: ELISA, periplasmic extract on control IgG
row,Binder,O.D. 450 [O.D. 450]
1,B1,0.057
2,B2,0.06
3,B3,0.06
4,B4,0.054
5,B5,0.059
6,B6,0.059
7,B7,0.057
8,B8,0.057
9,B9,0.054
10,B10,0.056
11,B11,0.053
12,B12,0.058

# Molecular target: T2, porcine CD163 with deletion of SRCR …
# Assay: flow cytometry on PAM with deletion of SRCR5
# Protocol: as §1, §2
row,Binder,binding result
1,B1,no binding
2,B2,no binding
3,B3,no binding
4,B4,no binding
5,B5,no binding
6,B6,no binding
7,B7,no binding
8,B8,no binding
9,B9,no binding
10,B10,no binding
11,B11,no binding
12,B12,no binding

# Molecular target: T1, native membrane bound porcine CD163 on …
# Assay: flow cytometry, PAM CD163-WT, RT
Binder,% Binding [%],MFI [MFI]
B1,1.02,900
B2,1.59,927
B3,0.87,963
B4,0.56,843
B5,0.69,722
B6,3.32,983
B7,91.5,17700
B8,1.74,903
B9,59.5,3940
B10,81.5,9120
B11,37.2,2290
B12,20.4,1660

# Molecular target: T2, porcine CD163 with deletion of SRCR …
# Assay: flow cytometry, PAM CD163-d5
# Protocol: as §1, §2
Binder,% Binding [%],MFI [MFI]
B1,1.74,1260
B2,1.66,1360
B3,2.7,1460
B4,1.53,1260
B5,2.15,1430
B6,1.91,1610
B7,2.13,1580
B8,1.96,1400
B9,1.83,1530
B10,1.98,1330
B11,2.14,1450
B12,1.6,1130
